Reference: patent publication US20250076311A1 (Chugai, published 2025)

T1: human FcγRIIb constitutively expressed on MDCK cells (human, UniProt P31994 43-310)
T1 sequence (looked up): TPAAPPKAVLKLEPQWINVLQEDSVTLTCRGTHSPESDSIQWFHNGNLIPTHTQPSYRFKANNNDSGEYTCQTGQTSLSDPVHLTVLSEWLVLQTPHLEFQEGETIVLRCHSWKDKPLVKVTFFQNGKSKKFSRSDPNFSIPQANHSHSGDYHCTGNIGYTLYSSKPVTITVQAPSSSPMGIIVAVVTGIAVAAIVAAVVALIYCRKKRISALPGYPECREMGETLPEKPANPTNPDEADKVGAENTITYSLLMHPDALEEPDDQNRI

T2: soluble mouse FcγRII, His-tagged (mouse, UniProt P08101 30-210, limits assumed)
T2 construct: Captured on the chip through an anti-His antibody
T2 sequence (looked up): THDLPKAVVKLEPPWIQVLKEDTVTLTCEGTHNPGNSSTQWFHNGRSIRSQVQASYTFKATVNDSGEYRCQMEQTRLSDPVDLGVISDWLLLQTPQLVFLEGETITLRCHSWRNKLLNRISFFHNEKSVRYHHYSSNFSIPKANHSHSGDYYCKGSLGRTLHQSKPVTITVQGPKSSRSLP

B1: MS1032LO06-P1375m (antibody, human IgG1, kappa, name in EU numbering)
heavy: not shown
light: DIVMTQSPATLSLSPGERATLSCTSSQSVYHANWLSWFQQKPGQPPKLLIYWASTLAYGVPSRFSGSGSGTDFTLTISSLQPEDAATYYCAGGYGGGRYAFGQGTKVEIKRTVAAPSVFIFPPSDEQLKSGTASVVCLLNNFYPREAKVQWKVDNALQSGNSQESVTEQDSKDSTYSLSSTLTLSKADYEKHKVYACEVTHQGLSSPVTKSFNRGEC
notes: also called M103205H795-P1375m; copies: 2 + 2
B2: M103205H795-P1493m/M103202L889-SK1 (antibody, human IgG1, kappa, name in EU numbering)
heavy: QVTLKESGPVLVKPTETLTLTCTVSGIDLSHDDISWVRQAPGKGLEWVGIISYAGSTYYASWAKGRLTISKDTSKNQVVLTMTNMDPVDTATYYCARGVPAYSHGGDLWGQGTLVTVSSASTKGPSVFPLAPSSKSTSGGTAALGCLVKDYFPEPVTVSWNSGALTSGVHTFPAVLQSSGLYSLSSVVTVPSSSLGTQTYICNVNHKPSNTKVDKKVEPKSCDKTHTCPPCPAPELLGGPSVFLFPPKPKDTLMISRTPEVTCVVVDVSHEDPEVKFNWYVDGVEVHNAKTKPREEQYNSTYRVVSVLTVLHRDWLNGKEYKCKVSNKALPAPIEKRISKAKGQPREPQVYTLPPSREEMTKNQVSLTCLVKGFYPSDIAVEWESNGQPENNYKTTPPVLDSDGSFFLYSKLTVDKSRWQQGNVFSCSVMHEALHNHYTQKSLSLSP
light: B1 light
notes: copies: 2 + 2
B3: M103205H795-P1491m/M103202L889-SK1 (antibody, human IgG1, kappa, name in EU numbering)
heavy: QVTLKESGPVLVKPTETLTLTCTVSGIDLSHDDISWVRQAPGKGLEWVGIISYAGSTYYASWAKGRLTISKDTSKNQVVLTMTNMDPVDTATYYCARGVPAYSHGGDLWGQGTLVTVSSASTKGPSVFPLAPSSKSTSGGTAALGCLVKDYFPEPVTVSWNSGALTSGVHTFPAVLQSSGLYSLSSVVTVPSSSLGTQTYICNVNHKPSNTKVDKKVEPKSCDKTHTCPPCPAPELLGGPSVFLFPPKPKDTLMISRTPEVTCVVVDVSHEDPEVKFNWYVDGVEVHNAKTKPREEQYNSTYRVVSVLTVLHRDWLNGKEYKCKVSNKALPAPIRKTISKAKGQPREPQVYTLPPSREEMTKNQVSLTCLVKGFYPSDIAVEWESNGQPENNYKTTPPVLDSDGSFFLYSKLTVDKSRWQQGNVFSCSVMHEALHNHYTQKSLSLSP
light: B1 light
notes: copies: 2 + 2
B4: M103205H795-P1488m/M103202L889-SK1 (antibody, human IgG1, kappa, name in EU numbering)
heavy: not shown
light: B1 light
notes: copies: 2 + 2
B5: M103205H795-P1496m/M103202L889-SK1 (antibody, human IgG1, kappa, name in EU numbering)
heavy: not shown
light: B1 light
notes: copies: 2 + 2
B6: M103205H795-P1490m/M103202L889-SK1 (antibody, human IgG1, kappa, name in EU numbering)
heavy: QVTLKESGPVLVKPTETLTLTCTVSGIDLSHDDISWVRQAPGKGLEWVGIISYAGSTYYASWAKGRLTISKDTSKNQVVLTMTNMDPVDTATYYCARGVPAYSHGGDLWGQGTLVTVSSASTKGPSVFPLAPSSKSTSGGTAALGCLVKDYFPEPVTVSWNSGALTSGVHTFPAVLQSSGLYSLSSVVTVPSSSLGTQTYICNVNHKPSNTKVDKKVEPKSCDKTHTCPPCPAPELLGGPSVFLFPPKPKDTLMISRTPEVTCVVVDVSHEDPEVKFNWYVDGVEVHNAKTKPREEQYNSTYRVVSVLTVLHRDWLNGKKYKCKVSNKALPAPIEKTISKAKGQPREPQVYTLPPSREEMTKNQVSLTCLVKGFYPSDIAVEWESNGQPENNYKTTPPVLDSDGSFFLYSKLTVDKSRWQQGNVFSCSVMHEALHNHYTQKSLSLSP
light: B1 light
notes: copies: 2 + 2
B7: M103205H795-P1526m/M103202L889-SK1 (antibody, human IgG1, kappa, name in EU numbering)
heavy: not shown
light: B1 light
notes: copies: 2 + 2
B8: M103205H795-P1487m/M103202L889-SK1 (antibody, human IgG1, kappa, name in EU numbering)
heavy: not shown
light: B1 light
notes: copies: 2 + 2
B9: M103205H795-P1523m/M103202L889-SK1 (antibody, human IgG1, kappa, name in EU numbering)
heavy: not shown
light: B1 light
notes: copies: 2 + 2
B10: M103205H795-P1486m/M103202L889-SK1 (antibody, human IgG1, kappa, name in EU numbering)
heavy: not shown
light: B1 light
notes: copies: 2 + 2
B11: M103205H795-P1485m/M103202L889-SK1 (antibody, human IgG1, kappa, name in EU numbering)
heavy: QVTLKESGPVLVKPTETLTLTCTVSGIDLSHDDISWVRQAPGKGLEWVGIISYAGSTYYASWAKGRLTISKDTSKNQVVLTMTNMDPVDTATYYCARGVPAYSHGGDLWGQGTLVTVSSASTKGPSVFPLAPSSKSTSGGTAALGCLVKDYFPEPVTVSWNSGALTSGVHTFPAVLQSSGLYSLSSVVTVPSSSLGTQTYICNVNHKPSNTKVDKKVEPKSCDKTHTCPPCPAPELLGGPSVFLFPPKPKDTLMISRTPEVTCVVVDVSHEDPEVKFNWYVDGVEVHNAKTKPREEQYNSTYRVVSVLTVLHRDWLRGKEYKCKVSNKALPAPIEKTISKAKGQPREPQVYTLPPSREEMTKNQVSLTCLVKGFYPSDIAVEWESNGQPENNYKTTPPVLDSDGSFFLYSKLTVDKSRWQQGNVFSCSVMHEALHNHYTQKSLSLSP
light: B1 light
notes: copies: 2 + 2
B12: M103205H795-P1530m/M103202L889-SK1 (antibody, human IgG1, kappa, name in EU numbering)
heavy: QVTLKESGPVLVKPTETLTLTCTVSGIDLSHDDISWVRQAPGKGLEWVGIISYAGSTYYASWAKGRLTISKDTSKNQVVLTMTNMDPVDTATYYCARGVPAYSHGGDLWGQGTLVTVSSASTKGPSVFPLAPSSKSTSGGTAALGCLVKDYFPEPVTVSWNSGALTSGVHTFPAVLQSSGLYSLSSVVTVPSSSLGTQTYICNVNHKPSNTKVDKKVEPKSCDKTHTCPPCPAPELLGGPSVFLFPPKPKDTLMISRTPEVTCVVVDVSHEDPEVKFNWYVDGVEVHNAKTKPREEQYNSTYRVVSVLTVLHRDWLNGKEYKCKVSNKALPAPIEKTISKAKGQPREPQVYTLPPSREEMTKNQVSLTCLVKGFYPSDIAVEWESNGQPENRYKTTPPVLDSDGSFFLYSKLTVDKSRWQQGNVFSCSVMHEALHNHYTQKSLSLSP
light: B1 light
notes: copies: 2 + 2
B13: M103205H795-P1500m/M103202L889-SK1 (antibody, human IgG1, kappa, name in EU numbering)
heavy: not shown
light: B1 light
B14: M103205H795-P1489m/M103202L889-SK1 (antibody, human IgG1, kappa, name in EU numbering)
heavy: not shown
light: B1 light
notes: copies: 2 + 2
B15: M103205H795-P1524m/M103202L889-SK1 (antibody, human IgG1, kappa, name in EU numbering)
heavy: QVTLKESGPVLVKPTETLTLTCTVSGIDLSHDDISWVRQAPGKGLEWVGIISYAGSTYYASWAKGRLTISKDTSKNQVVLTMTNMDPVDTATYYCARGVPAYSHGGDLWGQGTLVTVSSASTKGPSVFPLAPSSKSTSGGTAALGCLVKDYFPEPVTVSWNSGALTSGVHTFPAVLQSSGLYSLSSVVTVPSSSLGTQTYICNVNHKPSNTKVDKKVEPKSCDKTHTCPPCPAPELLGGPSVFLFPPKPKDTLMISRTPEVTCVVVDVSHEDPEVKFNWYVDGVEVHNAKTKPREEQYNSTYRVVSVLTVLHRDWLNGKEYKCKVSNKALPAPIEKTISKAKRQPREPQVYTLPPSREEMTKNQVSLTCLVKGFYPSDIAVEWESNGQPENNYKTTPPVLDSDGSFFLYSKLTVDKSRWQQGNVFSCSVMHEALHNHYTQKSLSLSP
light: B1 light
B16: M103205H795-P1484m/M103202L889-SK1 (antibody, human IgG1, kappa, name in EU numbering)
heavy: not shown
light: B1 light
notes: copies: 2 + 2
B17: M103205H795-P1497m/M103202L889-SK1 (antibody, human IgG1, kappa, name in EU numbering)
heavy: not shown
light: B1 light
B18: M103205H795-P1498m/M103202L889-SK1 (antibody, human IgG1, kappa, name in EU numbering)
heavy: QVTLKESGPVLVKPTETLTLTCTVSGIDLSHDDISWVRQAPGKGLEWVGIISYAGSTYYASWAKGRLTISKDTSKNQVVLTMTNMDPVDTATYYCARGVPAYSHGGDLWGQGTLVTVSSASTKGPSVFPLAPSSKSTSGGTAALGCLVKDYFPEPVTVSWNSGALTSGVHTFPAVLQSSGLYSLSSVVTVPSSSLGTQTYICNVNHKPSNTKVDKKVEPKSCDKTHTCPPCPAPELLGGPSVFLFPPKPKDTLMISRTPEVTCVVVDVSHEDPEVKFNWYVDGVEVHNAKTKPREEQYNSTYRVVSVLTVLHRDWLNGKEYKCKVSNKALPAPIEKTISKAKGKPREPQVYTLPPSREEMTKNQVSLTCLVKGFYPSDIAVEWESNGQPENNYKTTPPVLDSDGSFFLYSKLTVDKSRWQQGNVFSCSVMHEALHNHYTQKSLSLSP
light: B1 light
B19: M103205H795-P1525m/M103202L889-SK1 (antibody, human IgG1, kappa, name in EU numbering)
heavy: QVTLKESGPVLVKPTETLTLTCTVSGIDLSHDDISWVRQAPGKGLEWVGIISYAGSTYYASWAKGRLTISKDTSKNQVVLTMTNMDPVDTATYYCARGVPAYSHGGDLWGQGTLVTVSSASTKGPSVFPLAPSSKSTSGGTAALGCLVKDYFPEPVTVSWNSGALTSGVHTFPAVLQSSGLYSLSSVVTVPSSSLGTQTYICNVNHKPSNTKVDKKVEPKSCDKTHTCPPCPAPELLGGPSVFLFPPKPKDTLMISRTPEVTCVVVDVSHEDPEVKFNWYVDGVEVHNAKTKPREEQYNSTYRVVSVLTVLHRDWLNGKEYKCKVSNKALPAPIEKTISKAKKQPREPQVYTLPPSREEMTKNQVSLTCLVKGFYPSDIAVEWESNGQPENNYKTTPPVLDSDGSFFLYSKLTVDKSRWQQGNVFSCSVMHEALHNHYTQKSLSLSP
light: B1 light
B20: M103205H795-P1529m/M103202L889-SK1 (antibody, human IgG1, kappa, name in EU numbering)
heavy: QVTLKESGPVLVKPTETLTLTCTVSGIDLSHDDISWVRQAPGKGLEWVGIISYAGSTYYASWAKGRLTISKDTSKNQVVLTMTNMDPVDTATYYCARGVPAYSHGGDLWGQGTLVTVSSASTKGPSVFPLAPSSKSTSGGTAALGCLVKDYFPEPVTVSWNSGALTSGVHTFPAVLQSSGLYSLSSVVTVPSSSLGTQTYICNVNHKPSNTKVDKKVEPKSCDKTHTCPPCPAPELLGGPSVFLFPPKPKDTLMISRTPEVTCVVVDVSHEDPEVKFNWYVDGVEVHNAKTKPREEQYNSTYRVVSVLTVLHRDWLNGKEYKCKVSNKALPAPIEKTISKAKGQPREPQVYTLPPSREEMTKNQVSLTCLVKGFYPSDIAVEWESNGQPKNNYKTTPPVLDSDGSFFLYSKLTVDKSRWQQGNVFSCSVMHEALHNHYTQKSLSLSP
light: B1 light
notes: copies: 2 + 2
B21: M103205H795-P1492m/M103202L889-SK1 (antibody, human IgG1, kappa, name in EU numbering)
heavy: not shown
light: B1 light
notes: copies: 2 + 2
B22: M103205H795-P1495m/M103202L889-SK1 (antibody, human IgG1, kappa, name in EU numbering)
heavy: not shown
light: B1 light
notes: copies: 2 + 2
B23: M103205H795-P1522m/M103202L889-SK1 (antibody, human IgG1, kappa, name in EU numbering)
heavy: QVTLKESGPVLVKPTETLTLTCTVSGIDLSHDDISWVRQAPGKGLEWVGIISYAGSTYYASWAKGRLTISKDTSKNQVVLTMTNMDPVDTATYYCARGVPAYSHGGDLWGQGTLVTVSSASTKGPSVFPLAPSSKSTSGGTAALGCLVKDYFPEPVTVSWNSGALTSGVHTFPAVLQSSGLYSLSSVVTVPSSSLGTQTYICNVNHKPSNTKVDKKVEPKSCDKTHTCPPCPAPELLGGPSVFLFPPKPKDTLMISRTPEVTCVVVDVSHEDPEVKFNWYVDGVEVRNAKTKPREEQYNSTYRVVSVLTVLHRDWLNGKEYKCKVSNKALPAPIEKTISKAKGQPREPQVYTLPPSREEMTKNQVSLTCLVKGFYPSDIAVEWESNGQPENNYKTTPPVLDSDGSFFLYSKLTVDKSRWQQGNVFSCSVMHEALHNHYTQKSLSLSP
light: B1 light
notes: copies: 2 + 2
B24: M103205H795-P1527m/M103202L889-SK1 (antibody, human IgG1, kappa, name in EU numbering)
heavy: not shown
light: B1 light
notes: copies: 2 + 2
B25: M103205H795-P1494m/M103202L889-SK1 (antibody, human IgG1, kappa, name in EU numbering)
heavy: not shown
light: B1 light
notes: copies: 2 + 2
B26: M103205H795-P1528m/M103202L889-SK1 (antibody, human IgG1, kappa, name in EU numbering)
heavy: not shown
light: B1 light
notes: copies: 2 + 2
B27: M103205H795-P1501m/M103202L889-SK1 (antibody, human IgG1, kappa, name in EU numbering)
heavy: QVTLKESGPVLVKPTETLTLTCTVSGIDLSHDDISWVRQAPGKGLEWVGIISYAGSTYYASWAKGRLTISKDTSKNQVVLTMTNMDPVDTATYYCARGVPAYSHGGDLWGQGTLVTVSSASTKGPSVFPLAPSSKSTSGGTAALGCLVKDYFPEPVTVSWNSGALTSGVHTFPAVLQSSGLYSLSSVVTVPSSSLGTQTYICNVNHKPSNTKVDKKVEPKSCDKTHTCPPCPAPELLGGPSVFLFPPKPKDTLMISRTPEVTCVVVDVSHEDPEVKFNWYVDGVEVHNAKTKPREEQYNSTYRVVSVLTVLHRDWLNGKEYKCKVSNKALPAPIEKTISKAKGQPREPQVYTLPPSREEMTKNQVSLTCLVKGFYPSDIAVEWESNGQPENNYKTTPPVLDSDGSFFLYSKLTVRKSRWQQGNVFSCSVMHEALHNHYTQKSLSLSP
light: B1 light
notes: copies: 2 + 2

target: T1, human FcγRIIb constitutively expressed …; assay: cell-based or functional assay

Point of comparison: B21, “celluar uptake (labelled human latent myostatin taken up as antigen-antibody complex)” value 1.13 relative to SG1 = 1.00. Against it:
- B1 — higher, 3.43 relative to SG1 = 1.00
- B2 — lower, 0.99 relative to SG1 = 1.00
- B3 — higher, 1.37 relative to SG1 = 1.00
- B4 — higher, 1.45 relative to SG1 = 1.00
- B5 — higher, 1.69 relative to SG1 = 1.00
- B6 — higher, 1.33 relative to SG1 = 1.00
- B7 — higher, 1.2 relative to SG1 = 1.00
- B8 — higher, 1.23 relative to SG1 = 1.00
- B9 — higher, 1.91 relative to SG1 = 1.00
- B10 — higher, 1.52 relative to SG1 = 1.00
- B11 — higher, 1.88 relative to SG1 = 1.00
- B12 — higher, 3.12 relative to SG1 = 1.00
- B13 — higher, 1.82 relative to SG1 = 1.00
- B14 — higher, 1.68 relative to SG1 = 1.00
- B15 — higher, 3.66 relative to SG1 = 1.00
- B16 — lower, 0 relative to SG1 = 1.00
- B17 — higher, 1.38 relative to SG1 = 1.00
- B18 — higher, 1.56 relative to SG1 = 1.00
- B19 — higher, 3.55 relative to SG1 = 1.00
- B20 — higher, 2.86 relative to SG1 = 1.00
- B22 — higher, 1.76 relative to SG1 = 1.00
- B23 — higher, 2.13 relative to SG1 = 1.00
- B24 — lower, 0.92 relative to SG1 = 1.00
- B25 — lower, 1.12 relative to SG1 = 1.00
- B26 — higher, 3.02 relative to SG1 = 1.00
- B27 — higher, 2.4 relative to SG1 = 1.00

target: T2, soluble mouse FcγRII, His-tagged; assay: SPR, mouse FcγRII captured via His-tag, antigen-antibody complex injected, pH 7.4, 25 C
Protocol: Regarding the produced Fc region variant-containing antibodies, binding assays between soluble mouse FcγRII and antigen-antibody complexes were performed using BIACORE® T200 (GE Healthcare). Soluble mouse FcγRII was produced in the form of a His-tagged molecule by a method known to those skilled in the art. An appropriate amount of an anti-His antibody was fixed onto Sensor chip CM5 (GE Healthcare) by the amine coupling method using a His capture kit (GE Healthcare) to capture mouse FcγRII. Next, an antibody-antigen complex and a running buffer (as a reference solution) were injected, and interaction was allowed to take place with the mouse FcγRII captured onto the sensor chip. 20 mM N-(2-Acetamido)-2-aminoethanesulfonic acid, 150 mM NaCl, 1.2 mM CaCl₂), and 0.05% (w/v) TWEEN® 20 at pH7.4 was used as the running buffer, and the respective buffer was also used to dilute the soluble mouse FcγRII. To regenerate the sensor chip, 10 mM glycine-HCl at pH1.5 was used. All measurements were carried out at 25° C. […] To calculate the parameters, the BIACORE® T100 Evaluation Software (GE Healthcare) was used.

Point of comparison: B3, “biacore IC binding (relative, SG1 = 1.00)” value 1.05 relative to SG1. Against it:
- B1 — higher, 1.21 relative to SG1
- B2 — higher, 1.1 relative to SG1
- B4 — higher, 1.43 relative to SG1
- B5 — higher, 1.28 relative to SG1
- B6 — higher, 1.28 relative to SG1
- B7 — lower, 1.04 relative to SG1
- B8 — higher, 1.46 relative to SG1
- B9 — higher, 1.19 relative to SG1
- B10 — higher, 1.2 relative to SG1
- B11 — higher, 1.29 relative to SG1
- B12 — higher, 1.09 relative to SG1
- B13 — higher, 1.32 relative to SG1
- B14 — higher, 1.24 relative to SG1
- B15 — higher, 1.4 relative to SG1
- B16 — higher, 1.33 relative to SG1
- B17 — higher, 1.49 relative to SG1
- B18 — higher, 1.38 relative to SG1
- B19 — higher, 1.31 relative to SG1
- B20 — higher, 1.08 relative to SG1
- B21 — lower, 0.88 relative to SG1
- B22 — higher, 1.3 relative to SG1
- B23 — higher, 1.24 relative to SG1
- B24 — lower, 0.98 relative to SG1
- B25 — higher, 1.14 relative to SG1
- B26 — higher, 1.12 relative to SG1
- B27 — higher, 1.82 relative to SG1
